The results in this text go back to PMC2978097 (2010).

Broadly, the Kd is the constant that tells how readily two partners part at equilibrium.

This test deals with α-synuclein (Homo sapiens, UniProt P37840). Put plainly: fluorescence anisotropy. On the technique in general: Fluorescence polarisation rises when a labelled molecule tumbles more slowly, as on binding a larger partner.

The molecule GVLWVGSKTR [Y39W β-syn 36D] showed a Kd of around 1000 nM.
